Experimental findings from article PMC6109231 are described below.

Values joined by “and” are separate entries in the source; they are usually repeats but may differ in a detail not shown here. Identical values can stand only once.

The target of the experiment is 20S proteasome core (human (endogenous in HEK293T)). The experiment in a line: negative-stain EM, single-particle analysis; SEC fraction 4 (1.5 to 2 MDa) of HEK293T lysate, Superdex 200 in PBS pH 7.2 at 4°C; 2% uranyl acetate; raw micrographs, reference-free 2D class averages, 3D classification (RELION) and ab initio reconstruction (cryoSPARC); proteins identified by mass spectrometry of the fraction.

As to 19S regulatory particle (complex), the stoichiometry N was 1 and 2.
